In paper PMC3741231:

What was measured:
[1] = biological target: human wild type PCSK9-V5 (prosegment≡PCSK9 complex) in conditioned medium (human) (UniProt Q8NBP7)
[2] = biological target: human wild type PCSK9-V5 (prosegment≡PCSK9 complex) in conditioned medium (human) (UniProt Q8NBP7); remark: listed apart in the source
[3] = biological target: human wild type PCSK9-V5 (prosegment≡PCSK9 complex) in conditioned medium (human) (UniProt Q8NBP7); remark: listed apart in the source
[4] = biological target: PCSK9 Δ33-58 D374Y-V5 (human) (UniProt Q8NBP7)
[5] = biological target: PCSK9 D374Y-V5 (gain-of-function natural mutant) (human) (UniProt Q8NBP7)
[6] = biological target: PCSK9 Δ33-58-V5 (lacking the acidic N-terminal region of the prosegment) (human) (UniProt Q8NBP7)

Substance	reduction by Fcpro (3 µg/ml, pre-incubated with 1 µg/ml PCSK9, both in HEK293 conditioned media) of the LDLR degradation induced by extracellular PCSK9 in HepG2/shPCSK9 cells, 4 h at 37°C [1] [%]	reversal by co-expressed Fcpro (DNA ratio PCSK9:Fcpro 1:3; ratios up to 1:9 gave no more) of the ∼44% LDLR degradation induced by PCSK9; total LDLR by Western blot of cell lysates [2] [%]	fold increase of total LDLR on co-expression of Fcpro with wild type PCSK9 in HepG2/shPCSK9 cells [3] [fold]	total LDLR level (normalised to β-actin) in HepG2/shPCSK9 cells co-expressing Fcpro and PCSK9 Δ33-58 D374Y, against 0.08 with Δ33-58 D374Y alone (relative LDLR level) [4]	total LDLR level (normalised to β-actin) in HepG2/shPCSK9 cells co-expressing Fcpro and PCSK9 D374Y, against 0.1 with D374Y alone (relative LDLR level) [5]	fold increase of total LDLR on co-expression of Fcpro with PCSK9 Δ33-58 in HepG2/shPCSK9 cells [6] [fold]
Fcpro (Fc of human IgG1, hinge of human IgG1 and PCSK9 prosegment aa 31-152) (from UniProt Q8NBP7 31-152) (Fc fusion)	60	–	–	–	–	–
Fcpro expressed in HepG2/shPCSK9 cells (from UniProt Q8NBP7 31-152) (Fc fusion)	–	75	1.4	0.31	0.44	1.4
